One block for each molecule: values may come before it.
Assays:
Val-Gly [1] = molecular target: Val-Gly
glutathione [2] = molecular target: glutathione
Val-Gly [3] = molecular target: Val-Gly; remark: listed apart in the source
glutathione [4] = molecular target: glutathione; remark: listed apart in the source

γ-Glu-Val-Gly (ppm) in the reaction mixture after reaction with glutaminase, 4000 ppm Val-Gly added (Val-Gly [1]): 16 ppm | GSH (ppm) in the reaction mixture after reaction with glutaminase, no Val-Gly added (glutathione [2]): 3.1 ppm
Molecule: Glutaminase Daiwa SD-C100S, Daiwa kasei (enzyme)

γ-Glu-Val-Gly (ppm) in the reaction mixture after reaction with γ-GTP, 4000 ppm Val-Gly added (Val-Gly [3]): 340 ppm | GSH (ppm) in the reaction mixture after reaction with γ-GTP, no Val-Gly added (glutathione [4]): 432 ppm
Molecule: γ-Glutamyltranspeptidase from equine kidney, Sigma, Code G9270-100UN (enzyme)

The next lines start with the molecule.

Molecule: Gsh2p (glutathione synthetase) of Saccharomyces cerevisiae (enzyme)
γ-EVG, µg 1^-1 OD600^-1, formed in cells cultured with 100 ppm γ-Glu-Val, strain S288C ura3Δ227/YEp24-PTDH3-GSH2 (µg 1^-1 OD600^-1) (γ-Glu-Val): 705

B1: Hgt1p of Saccharomyces cerevisiae (protein)
chain: MSTIYRESDSLESEPSPTPTTIPIQINMEEEKKDAFVKNIDEDVNNLTATTDEEDRDPESQKFDRHSIQEEGLVWKGDPTYLPNSPYPEVRSAVSIEDDPTIRLNHWRTWFLTTVFVVVFAGVNQFFSLRYPSLEINFLVAQVVCYPIGRILALLPDWKCSKVPFFDLNPGPFTKKEHAVVTIAVALTSSTAYAMYILNAQGSFYNMKLNVGYQFLLVWTSQMIGYGAAGLTRRWVVNPASSIWPQTLISVSLFDSLHSRKVEKTVANGWTMPRYRFFLIVLIGSFIWYWVPGFLFTGLSYFNVILWGSKTRHNFIANTIFGTQSGLGALPITFDYTQVSQAMSGSVFATPFYVSANTYASVLIFFVIVLPCLYFTNTWYAKYMPVISGSTYDNTQNKYNVTKILNEDYSINLEKYKEYSPVFVPFSYLLSYALNFAAVIAVFVHCILYHGKDIVAKFKDRKNGGTDIHMRIYSKNYKDCPDWWYLLLQIVMIGLGFVAVCCFDTKFPAWAFVIAILISLVNFIPQGILEAMTNQHVGLNIITELICGYMLPLRPMANLLFKLYGFIVMRQGLNLSRDLKLAMYMKVSPRLIFAVQIYATIISGMVNVGVQEWMMHNIDGLCTTDQPNGFTCANGRTVFNASIIWSLPKYLFSSGRIYNPLMWFFLIGLLFPLAVYAVQWKFPKFKFAKHIHTPVFFTGPGNIPPSTPYNYSLFFAMSFCLNLIRKRWRAWFNKYNFVMGAGVEAGVAISVVIIFLCVQYPGGKLSWWGNNVWKRTYDNDYKKFYTLKKGETFGYDKWW
intracellular content of γ-Glu-nVal-Gly on the dry weight cell, 100 ppm added (γ-Glu-nVal-Gly): 2.84%
